Where “and” joins values, the source holds several entries; their conditions need not be identical. Equal entries are not always repeated.

The target of assay [1] is SC-K^d -15 (mouse) (UniProt P01887). The assay is described as follows: direct peptide binding assay, peptide coated at 30 µg/ml pH 9.6, 35S-labeled SC-Kd, input 10,000 cpm, duplicate.
For assay [2], the target named is HLA-DR3 (human). The assay is described as follows: direct peptide binding assay, peptide coated at 30 µg/ml pH 9.6, 125I-labeled HLA-DR3, input 200000 cpm, duplicate.
Assay [3] deals with HLA-DRw13 (human). Description: direct peptide binding assay, peptide coated at 30 µg/ml pH 9.6, 125I-labeled HLA-DRw13, input 200000 cpm, duplicate.
The target in assay [4] is SC-K^d -15 (mouse) (UniProt P01887). The assay is described as follows: direct peptide binding assay, peptide coated at 5 µg/ml pH 9.6, 35S-labeled SC-Kd, input 6000 cpm, no coated peptide 228 and 223, duplicate.
Assay [5] addresses K^d molecules isolated from the spleen of BALB/c mice (mouse) (UniProt P01887).
In assay [6] the target is SC-K^d -15 (mouse) (UniProt P01887).
The target is the same in assay [7]. Description: direct peptide binding assay, peptide coated at 10 µg/ml pH 5, 35S-labeled SC-Kd, input 10,000 cpm, duplicate.
The target of assay [8] is HLA-DR3 (human). The assay is described as follows: direct peptide binding assay, peptide coated at 10 µg/ml pH 5, 125I-labeled HLA-DR3, input 200000 cpm, duplicate.
The target of assay [9] is HLA-DRw13 (human). The assay is described as follows: direct peptide binding assay, peptide coated at 10 µg/ml pH 5, 125I-labeled HLA-DRw13, input 200000 cpm, duplicate.
Assay [10] has as its target SC-K^d -15 (mouse) (UniProt P01887). Description: direct peptide binding assay, peptide coated at 10 µg/ml pH 9.6, 35S-labeled SC-Kd, input 6000 cpm, no coated peptide 228 and 223, duplicate.
Assay [11] deals with K^d molecules isolated from the spleen of BALB/c mice (mouse) (UniProt P01887). The assay is described as follows: direct peptide binding assay, peptide coated at 10 µg/ml pH 9.6, 125I-labeled H-2K, input 100000 cpm, no coated peptide 1471 and 1595, duplicate.
Assay [12] addresses T1, SC-K^d -15 (Mus musculus, UniProt P01887+P01902).
T1 construct: connecting residue 276 of K^d heavy chain to the first residue of β2 -microglobulin through spacers; made in house
T1 sequence (P01902+P01887 with tags, fused parts or gaps): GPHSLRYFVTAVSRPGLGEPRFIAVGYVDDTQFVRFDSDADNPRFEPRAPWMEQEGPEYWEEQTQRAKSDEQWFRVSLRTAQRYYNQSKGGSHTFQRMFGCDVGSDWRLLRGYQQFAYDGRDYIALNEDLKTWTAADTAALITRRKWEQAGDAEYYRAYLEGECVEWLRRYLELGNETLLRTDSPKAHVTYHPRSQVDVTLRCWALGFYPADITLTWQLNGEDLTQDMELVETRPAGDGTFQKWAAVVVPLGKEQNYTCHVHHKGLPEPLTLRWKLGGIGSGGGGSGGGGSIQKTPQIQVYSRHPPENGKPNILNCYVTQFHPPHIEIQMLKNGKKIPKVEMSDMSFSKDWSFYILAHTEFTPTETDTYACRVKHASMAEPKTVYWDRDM
Description: Direct peptide binding assay, solid phase, with purified 35S-labeled SC-Kd. As to conditions: for binding of peptide to SC-K^d -15 (in words): direct binding assay. The method, then: (§1) Direct Peptide Binding Assay. Wells of microtiter plates are pretreated with 100 μl 2.5% glutaraldehyde in distilled water for 2 h at 20° C., washed with distilled water, and coated for 16 h at 4° C. with 100 μl of peptide diluted at 5 μg/ml either in carbonate-bicarbonate buffer, pH 9.6, or in PBS, pH 7.4 or pH 5.0. Remaining free sites are blocked by incubation for 2 h at 20° C. with BSA diluted 1% in PBS containing 0.05% Tween 20 (Tw) and 0.02% sodium azoture. After washing, purified ^125 I-HLA molecules (100 μl containing 1.5×10^5 cpm, 10^-9 M) diluted in PBS containing 1% BSA, 0.05% Tw, 0.02% sodium azoture, 1 mM PMSF, and 10 μg/ml trypsin inhibitor are added and incubated for 20 h at 20° C. After extensive washing, the radioactivity of each well is counted.
Inhibition Peptide Binding Assay. Concentrations of 0.1-100 μM of competitor peptides are incubated in tubes for 0-3 h at 20° C. with ^125 I-HLA (10^-9 M) diluted in PBS--BSA--Tw containing the protease inhibitors as mentioned above. […] After extensive washing, the radioactivity in each well is counted and the percent of inhibition is calculated.
(§2) COS-1 cells (usually 10^7 cells) were transfected with pSC-K^d -15 DNA, labeled and lysed as above. […] After the final wash in PBS, SC-K^d -15 was eluted from the matrix with an equal volume of 3M thiocyanate for 10 min on ice. After an overnight dialysis in PBS containing 0.1% NP40, 0.05% Tween and 0.2% BSA, SC-K^d -15 was used in direct binding test as below. Its purity was assessed by SDS-PAGE.
Peptides used in this study are described in Choppin et al. (Choppin, J., Martinon, F., Gomard, E., Bahraoui, E., Connan, F., Bouillot, F., and Levy, J.-P, J. Exp. Med., 1990. 172:889 and references therein), except for HLA-Cw3 and HLA-A24 described in Maryanski, J. Ll, Pala, P., Cerottini, J.-C, and Corradin, G., J. Exp. Med. 1988. 167:1391. Binding assays were performed as described in Choppin, J., Martinon, F., Gomard, E., Bahraoui, E., Connan, F., Bouillot, F., and Levy, J.-P, J. Exp. Med., 1990. 172:889. DR3, DRw13, and K^d molecules were also purified and iodinated as in Choppin, J., Martinon, F., Gomard, E., Bahraoui, E., Connan, F., Bouillot, F., and Levy, J.-P, J. Exp. Med., 1990. 172:889.
K^d molecules isolated from the spleen of BALB/c mice were then purified and iodinated. They were purified by affinity chromatography on a 20-8-4 mAb column and compared binding of peptides by the latter and by ^35 S-labeled SC-K^d -15 in the assay of Bouillot et al. (Bouillot, M., Choppin, J., Cornille, F., Martinon, F., Papo, T., Gomard, E., FournieZaluski, M.-C., and Levey, J.-P., Nature 1989. 339:473 and Choppin, J., Martinon, F., Gomard, E., Bahraoui, E., Connan, F., Bouillot, F., and Levy, J.-P, J. Exp. Med., 1990. 172:889).

Assay [13] has as its target T1, SC-K^d -15. The description is as above. As to conditions: Table 10 (A), input 10,000 cpm, duplicates.
The target in another assay is HLA-DR3 (Homo sapiens, UniProt P01903+P01911). The assay is described as follows: Direct peptide binding assay with purified 125I-labeled HLA-DR3 (positive control). Here is the method:
(§3) Direct Peptide Binding Assay. Wells of microtiter plates are pretreated with 100 μl 2.5% glutaraldehyde in distilled water for 2 h at 20° C., washed with distilled water, […] buffer, pH 9.6, or in PBS, pH 7.4 or pH 5.0. Remaining free sites are blocked by incubation for 2 h at 20° C. with BSA diluted 1% in PBS containing 0.05% Tween 20 (Tw) and 0.02% sodium azoture. […] After extensive washing, the radioactivity of each well is counted.

The target in the next assay is DRw13 (Homo sapiens, UniProt P01903+P01911). Description: Direct peptide binding assay with purified 125I-labeled HLA-DRw13 (positive control). Here is the method: as §3
In assay [14] the target is T2, K^d molecules isolated from the spleen of BALB/c mice (Mus musculus, UniProt P01902).
T2 construct: K^d molecules isolated from the spleen of BALB/c mice; from tissue
T2 sequence (P01902 22-368): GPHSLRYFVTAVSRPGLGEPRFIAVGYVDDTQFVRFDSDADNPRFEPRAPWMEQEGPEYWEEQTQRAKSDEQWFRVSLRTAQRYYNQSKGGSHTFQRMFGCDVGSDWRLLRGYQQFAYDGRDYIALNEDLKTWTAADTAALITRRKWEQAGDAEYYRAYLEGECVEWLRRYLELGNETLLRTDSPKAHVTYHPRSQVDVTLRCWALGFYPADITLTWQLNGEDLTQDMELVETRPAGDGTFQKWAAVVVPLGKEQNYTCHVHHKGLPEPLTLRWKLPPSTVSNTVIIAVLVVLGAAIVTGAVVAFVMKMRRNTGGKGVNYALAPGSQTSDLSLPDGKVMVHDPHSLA
T2 sequence (P01887 21-119 partner): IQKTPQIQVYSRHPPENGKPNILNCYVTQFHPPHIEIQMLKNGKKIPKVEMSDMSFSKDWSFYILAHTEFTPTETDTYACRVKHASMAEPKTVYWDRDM
The assay is described as follows: Direct peptide binding assay with purified 125I-labeled conventional K^d. Here is the method:
as §1
Inhibition Peptide Binding Assay. Concentrations of 0.1-100 μM of competitor peptides are incubated in tubes for 0-3 h at 20° C. with ^125 I-HLA (10^-9 M) diluted in PBS--BSA--Tw containing the protease inhibitors as mentioned above. […] After extensive washing, the radioactivity in each well is counted and the percent of inhibition is calculated. […]

The next assay deals with mAb 34-1-2. The assay is described as follows: Immunoprecipitation of 35S-labeled SC-K^d molecules from transfected COS-1 cell extracts by mAb 34-1-2. Format: binding. Here is the method:
as §2

[15] abbreviates: Table 10 (A), input 200000 cpm, peptide 10 μg/ml, pH 5, duplicates.

For HIV 1 Env. 312-327 (peptide), the cpm bound with SC-K^d -15 (mouse) [1] is 750 cpm and 712 cpm; with HLA-DR3 (human) [2], 3780 cpm; with HLA-DRw13 (human) [3] it was 22600 cpm; with SC-K^d -15 (mouse) [4] it was 390 cpm and 377 cpm.

As for HIV 1 Nef. 66-80 (peptide), the cpm bound with SC-K^d -15 (mouse) [1] is 475 cpm and 397 cpm; with HLA-DR3 (human) [2], 2320 cpm and 1820 cpm; in the assay with HLA-DRw13 (human) [3], 1390 cpm and 1290 cpm.

As for HIV 1 Vpr. 68-80 (peptide), the cpm bound to coated env 312-327 in the presence of the competitor was 359 cpm and 409 cpm in assay [5]; 42 cpm and 41 cpm with SC-K^d -15 (mouse) [6]. For the same substance, the cpm bound is 710 cpm and 621 cpm in the assay with SC-K^d -15 (mouse) [7]; 18600 cpm and 18200 cpm in the assay with HLA-DR3 (human) [8]; 21800 cpm and 20600 cpm with HLA-DRw13 (human) [9].

Consider HLA-A24 170-182 (peptide), for which the cpm bound was 284 cpm in the assay with SC-K^d -15 (mouse) [10]; 1060 cpm and 1300 cpm in assay [11].

For the substance HLA-Cw3 170-182 (peptide), the cpm bound to coated env 312-327 in the presence of the competitor was 15400 cpm and 15800 cpm in assay [5]; 367 cpm and 375 cpm with SC-K^d -15 (mouse) [6]. For the same substance, the cpm bound is 169 cpm and 117 cpm with SC-K^d -15 (mouse) [10]; 1340 cpm and 1380 cpm in [11].

For the substance IRIQRGPGRAFVTIGK [env 312-327], the “35S-labeled SC-Kd bound to coated peptide” value with SC-K^d -15 [12] (Table 10 (B), input 6000 cpm, peptide 5 μg/ml, pH 9.6, duplicates) is 390 cpm and 377 cpm; with SC-K^d -15 [13] (peptide 30 μg/ml, pH 9.6), 750 cpm and 712 cpm. Further, the “binding of peptide to SC-K^d -15 (in words)” value with SC-K^d -15 [12] is recorded as “significant binding”.

Take LFIHFRIGORHSR [vpr 68-80]: the “35S-labeled SC-Kd bound to coated env 312-327 in presence of the competing peptide” value with SC-K^d -15 [12] (Table 10 (B), competition, env 312-327 bound to plastic + labelled peptide as competitor, input 6000 cpm, duplicates) was 42 cpm and 41 cpm. Moreover, the “competition with env 312-327 peptide bound to plastic (in words)” value with SC-K^d -15 [12] (competition experiment, SC-K^d) is “competed efficiently”; in [14] (competition experiment, K^d) it was “competed efficiently”. Besides, the “binding of peptide to SC-K^d -15 (in words)” value with SC-K^d -15 [12] is “significant binding”. Besides, in the assay with HLA-DR3 (setting [15]), the “125I-labeled HLA-DR3 bound to coated peptide” value was 18582 cpm and 18245 cpm. For the same substance, in the assay with HLA-DR3 (direct binding assay), the “binding of peptide to HLA-DR3 positive control (in words)” value is on record as “significant binding”. Also, in the assay with DRw13 (setting [15]), the “125I-labeled HLA-DRw13 bound to coated peptide” value was 21838 cpm and 20593 cpm. The “binding of peptide to DR213 positive control (in words)” value in the assay with DRw13 (direct binding assay) was “significant binding”. Further, in [14] (Table 10 (B), competition, env 312-327 bound to plastic + labelled peptide as competitor, input 100000 cpm, duplicates), the “125I-labeled H-2K bound to coated env 312-327 in presence of the competing peptide” value was 359 cpm and 409 cpm. Also, the “35S-labeled SC-Kd bound to coated peptide” value with SC-K^d -15 [13] (peptide 10 μg/ml, pH 5) is 710 cpm and 621 cpm.

As to TYQRTRALVTG [NPR 147-158], in the assay with mAb 34-1-2, the “effect of added immunogenic peptide on immunoprecipitation of SC-K^d molecules” value is “no effect”.

(Values after patent publication US6011146A, “Altered major histocompatibility complex (MHC) determinant and methods of using the determinant” (Institut Pasteur, priority 1995, dated 2000).)
